# Test results from publication PMC7515726.
# Tests used:
# Test in all cases: affinity purification with mass spectrometry
# [1] = biological target: Nuc3, disk patch 3 mutant nucleosome (hH3.2x10, hH4x24, hH2B.Cx9), biotinylated 185 bp 601 DNA (human) (UniProt P20671)
# [2] = biological target: Nuc1, acidic patch mutant nucleosome (hH2A.Dx10), biotinylated 185 bp 601 DNA (human) (UniProt P62807)
# [3] = biological target: Nuc2, disk patch 2 mutant nucleosome (hH2A.Dx2, hH2B.Cx8), biotinylated 185 bp 601 DNA (human) (UniProt Q71DI3)
# RUVBL1, sequence (P60122 whole entry): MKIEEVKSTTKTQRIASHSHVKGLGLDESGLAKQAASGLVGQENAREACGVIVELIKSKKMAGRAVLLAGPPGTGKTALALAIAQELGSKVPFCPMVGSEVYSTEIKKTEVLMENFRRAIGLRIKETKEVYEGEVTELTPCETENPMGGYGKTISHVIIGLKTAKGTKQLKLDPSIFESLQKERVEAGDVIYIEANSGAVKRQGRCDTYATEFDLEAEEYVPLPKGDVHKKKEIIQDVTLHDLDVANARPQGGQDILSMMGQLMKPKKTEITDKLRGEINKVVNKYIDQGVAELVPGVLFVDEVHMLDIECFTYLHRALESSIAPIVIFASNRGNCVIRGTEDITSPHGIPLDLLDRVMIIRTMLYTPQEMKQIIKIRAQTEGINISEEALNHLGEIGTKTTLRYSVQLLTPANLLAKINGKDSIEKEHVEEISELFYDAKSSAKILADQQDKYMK
# RUVBL2, sequence (Q9WTM5 whole entry): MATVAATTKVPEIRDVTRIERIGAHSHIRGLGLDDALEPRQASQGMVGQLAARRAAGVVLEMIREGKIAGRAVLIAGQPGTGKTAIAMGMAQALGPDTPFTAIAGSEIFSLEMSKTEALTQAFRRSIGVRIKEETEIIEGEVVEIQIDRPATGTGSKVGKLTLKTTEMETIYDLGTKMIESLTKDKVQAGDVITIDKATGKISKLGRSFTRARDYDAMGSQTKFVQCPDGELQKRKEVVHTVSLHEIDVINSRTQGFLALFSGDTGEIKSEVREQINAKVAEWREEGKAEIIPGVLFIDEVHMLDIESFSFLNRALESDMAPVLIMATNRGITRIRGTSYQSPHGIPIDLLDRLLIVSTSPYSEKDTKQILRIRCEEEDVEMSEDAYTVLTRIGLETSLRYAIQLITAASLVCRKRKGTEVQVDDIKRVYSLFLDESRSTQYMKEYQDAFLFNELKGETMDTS
# RNF2 (RING finger protein 2), sequence (Q9CQJ4 whole entry): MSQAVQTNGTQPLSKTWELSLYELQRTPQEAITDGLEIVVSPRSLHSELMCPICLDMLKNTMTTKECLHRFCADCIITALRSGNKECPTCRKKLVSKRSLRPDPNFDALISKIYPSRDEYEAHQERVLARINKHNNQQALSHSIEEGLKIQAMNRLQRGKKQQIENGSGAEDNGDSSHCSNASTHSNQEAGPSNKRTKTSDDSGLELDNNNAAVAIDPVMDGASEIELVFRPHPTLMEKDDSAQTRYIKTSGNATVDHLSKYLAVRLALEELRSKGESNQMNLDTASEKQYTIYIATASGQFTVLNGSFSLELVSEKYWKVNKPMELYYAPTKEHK
fold decrease in binding vs wild-type nucleosome [1],fold decrease in binding vs wild-type nucleosome [2],fold decrease in binding vs wild-type nucleosome [3],Substance
1.33 fold,–,–,RUVBL1 (from UniProt P60122 1-456) (natural protein)
–,1.72 fold,–,DNMT1 DNA methyltransferase (from UniProt P13864 1-1620) (enzyme)
1.38 fold,–,–,RUVBL2 (from UniProt Q9WTM5 1-463) (natural protein)
–,27 fold,13 fold,HMGN2 (high mobility group nucleosome-binding domain-containing protein 2) (from UniProt P09602 1-90) (natural protein)
–,1.8 fold,–,methylcytosine dioxygenase Tet1 (from UniProt Q3URK3 1-2039) (enzyme)
–,1.5 fold,–,RNF2 (RING finger protein 2) (from UniProt Q9CQJ4 1-336) (natural protein)
